Test [1] has as its target T1, human Axl receptor on the surface of human tumor cells (human, UniProt P30530 26-894).
T1 construct: Endogenous Axl on human tumor cell lines (SN12C, Calu-1, MDA-MB435S, MDA-MB231, NCI-H125, Panc1); also called cell-surface Axl; membrane Axl receptor
T1 sequence: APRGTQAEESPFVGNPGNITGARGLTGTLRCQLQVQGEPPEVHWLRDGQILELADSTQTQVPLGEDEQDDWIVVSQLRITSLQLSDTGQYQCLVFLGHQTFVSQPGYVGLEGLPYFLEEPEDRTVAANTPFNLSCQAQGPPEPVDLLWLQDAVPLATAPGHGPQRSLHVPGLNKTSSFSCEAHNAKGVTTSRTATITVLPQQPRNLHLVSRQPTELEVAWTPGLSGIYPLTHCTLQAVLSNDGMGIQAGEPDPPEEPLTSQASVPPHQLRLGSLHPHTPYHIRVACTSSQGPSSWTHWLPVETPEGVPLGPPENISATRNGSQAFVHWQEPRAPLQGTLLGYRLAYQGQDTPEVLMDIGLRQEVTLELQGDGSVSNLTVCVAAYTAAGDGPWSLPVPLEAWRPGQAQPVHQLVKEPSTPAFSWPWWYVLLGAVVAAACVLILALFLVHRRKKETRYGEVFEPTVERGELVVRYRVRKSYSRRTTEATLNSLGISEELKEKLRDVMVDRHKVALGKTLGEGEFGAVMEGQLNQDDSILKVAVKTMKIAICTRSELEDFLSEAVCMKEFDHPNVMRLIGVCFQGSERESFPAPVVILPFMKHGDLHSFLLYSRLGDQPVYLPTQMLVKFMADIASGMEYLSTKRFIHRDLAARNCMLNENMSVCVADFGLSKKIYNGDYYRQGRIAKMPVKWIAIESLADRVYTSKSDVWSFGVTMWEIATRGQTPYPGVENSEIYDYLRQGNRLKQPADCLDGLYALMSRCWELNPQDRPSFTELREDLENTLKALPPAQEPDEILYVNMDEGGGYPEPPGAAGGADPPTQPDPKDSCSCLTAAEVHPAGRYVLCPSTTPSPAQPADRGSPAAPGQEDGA
As to the kind of experiment: flow cytometry on human tumor cells.

Test [2] concerns the target T2, rhDtk-Fc (R and D Systems, cat N° 859-DK) (human, UniProt Q06418 41-428, limits assumed).
T2 construct: Bought protein; also called Tyro3; not shown: Fc of human IgG
T2 sequence (looked up): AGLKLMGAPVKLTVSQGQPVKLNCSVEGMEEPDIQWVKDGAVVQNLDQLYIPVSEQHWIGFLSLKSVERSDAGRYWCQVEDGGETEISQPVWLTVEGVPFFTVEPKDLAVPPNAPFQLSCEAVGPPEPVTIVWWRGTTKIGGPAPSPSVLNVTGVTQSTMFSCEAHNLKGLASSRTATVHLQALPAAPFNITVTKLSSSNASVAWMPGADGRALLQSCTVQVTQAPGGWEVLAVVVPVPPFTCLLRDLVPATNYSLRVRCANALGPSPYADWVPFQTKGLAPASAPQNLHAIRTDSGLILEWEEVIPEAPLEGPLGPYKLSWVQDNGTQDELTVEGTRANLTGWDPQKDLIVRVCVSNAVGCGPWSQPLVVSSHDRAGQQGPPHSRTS
As to the kind of experiment: ELISA on coated protein.

In test [3] the target is T3, rhMer-Fc (R and D Systems, cat N° 891-MR) (human, UniProt Q12866 26-499, limits assumed).
T3 construct: Bought protein; not shown: Fc of human IgG
T3 sequence (looked up): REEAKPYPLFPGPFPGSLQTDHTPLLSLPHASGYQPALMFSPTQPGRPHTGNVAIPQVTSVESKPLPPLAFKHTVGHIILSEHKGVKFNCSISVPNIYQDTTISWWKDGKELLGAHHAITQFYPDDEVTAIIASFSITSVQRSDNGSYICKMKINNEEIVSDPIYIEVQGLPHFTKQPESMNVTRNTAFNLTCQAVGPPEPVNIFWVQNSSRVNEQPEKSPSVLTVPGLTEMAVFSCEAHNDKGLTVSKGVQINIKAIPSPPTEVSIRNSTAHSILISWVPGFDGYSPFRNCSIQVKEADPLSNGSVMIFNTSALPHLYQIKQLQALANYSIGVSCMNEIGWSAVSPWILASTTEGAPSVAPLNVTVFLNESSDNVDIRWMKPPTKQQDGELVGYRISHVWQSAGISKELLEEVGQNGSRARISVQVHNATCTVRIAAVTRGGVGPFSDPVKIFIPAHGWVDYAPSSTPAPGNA
As to the kind of experiment: ELISA on coated protein.

Test [4] has as its system MCF7 human breast tumor cell line. Kind of test: FACS binding on MCF7 cells. The procedure: For cell surface binding studies, two fold serial dilutions of a 10 μg/ml (6.66 10^−8 M) primary antibody solution (1613F12, MAB154 or mIgG1 isotype control 9G4 Mab) are prepared and are applied on 2·10^5 cells for 20 min at 4° C. After 3 washes in phosphate-buffered saline (PBS) supplemented with 1% BSA and 0.01% NaN3, cells were incubated with secondary antibody Goat anti-mouse Alexa 488 ( 1/500° dilution) for 20 minutes at 4° C. After 3 additional washes in PBS supplemented with 1% BSA and […], cells were analyzed by FACS (Facscalibur, Becton-Dickinson). At least 5000 cells were assessed to calculate the mean value of fluorescence intensity.
1613F12 dose response curves were prepared. MFIs obtained using the various human tumor cells were then analysed with Prism software.
(In general: In flow cytometry, cells or beads pass a laser one at a time.)

B1: m1613F12 (murine 1613F12, hybridoma CNCM I-4505) (antibody, V domains shown)
VH: EVHLQQSGAELVKPGASVKLSCTASGFNIRDTYIHWVKQRPEQGLEWIGRLDPANGHTKYGPNFQGRATMTSDTSSNTAYLQLSSLTSEDTAVYYCARGAYYYGSSGLFYFDYWGQGTTLSVSS
VL: DVQITQSPSYLATSPGETITINCRASKSISKYLAWYQEKPGKTNKLLIYSGSTLQSGVPSRFSGSGSGTDFTLTISSLEPEDFAMYFCQQHHEYPLTFGAGTELELK
notes: Murine monoclonal antibody; also called Axl antibody
With B1, the binding result in test [1] is “binds”; in test [2] it was “no binding”; in test [3], “no binding”. In addition, in test [4], the “binding of Axl receptor on MCF7 (FACS)” value is recorded as “No binding of Axl receptor was observed”.
